From patent US7282356B2, “D-aminoacylase mutants” (Daicel Chemical Industries, Ltd., priority 2002, dated 2007)

What was measured:
[1] = Third generation mutants: activity of producing D-tryptophan (TNBS method); assay type: cell-based, E. coli JM109; conditions: 2% N-acetyl-DL-tryptophan, 3.5% N-acetyl-L-tryptophan, 25° C., 30 minutes
Excerpt: (§1) The amino acid substitution in each mutant, and the effect of the amino acid substitution, which was estimated as an activity of producing D-tryptophan in the presence of 5% N-acetyl-DL-tryptophan and 2% N-acetyl-L-tryptophan, are shown in Table 2. The “activity”, as used herein, refers to “a colorimetric value of the reaction solution determined at the end of reaction by the TNBS method (Abs. 420)/the degree of bacterial growth (OD600)”.
Cells of the E. coli transformant obtained in Example 9 were inoculated on an LB agar plate. Each colony grown on the plate was inoculated with a toothpick to a well of a microtiter plate which contained 150 μl of LB culture medium containing 50 μg/ml ampicillin and 0.02 mM IPTG, and then the microtiter plate was covered with Breathable Sealing Membrane (Nalgene). The microtiter plate was incubated at 37° C. for 18 hours while being shaken. 10 μl of the culture medium solution was added to the reaction solution containing 300 mM Tris-hydrochloride buffer (pH 8.0), 0.1% cetylpyridinium bromide, 2% N-acetyl-DL-tryptophan, 3.5% N-acetyl-L-tryptophan, and distilled water in the wells of a microtiter plate. The plate was incubated at 25° C. for 30 minutes while being shaken. Then, D-tryptophan produced from N-acetyl-D-tryptophan was quantified by colorimetry according to the TNBS method using D-tryptophan as standard. […]

[2] = Reaction of third generation mutants with 7% N-acetyl-DL-tryptophan in microtiter plate; assay type: cell-based, E. coli HB101; conditions: 25° C., 8 hours
Protocol: With a conventional method, recombinant plasmid DNAs were purified from total 10 strains of E. coli JM109 transformant obtained in Example 16. Cells of E. coli HB101 strain were transformed with the recombinant plasmid DNAs to prepare transformants. Each colony grown on a culture plate was inoculated with a toothpick to a well of a microtiter plate which contained 150 μl of LB culture medium containing 50 μg/ml ampicillin and 0.02 mM IPTG, and then the microtiter plate was covered with Breathable Sealing Membrane (Nalgene). The microtiter plate was incubated at 37° C. for 18 hours while being shaken. The reaction was carried out using total 200 μl of a reaction solution containing 100 μl of culture medium solution, 300 mM Tris-hydrochloride buffer (pH 8.0), 7% N-acetyl-DL-tryptophan, and distilled water in each well of a microtiter plate at 25° C. for 8 hours while being shaken. When all of the N-acetyl-D-tryptophan contained in substrate is converted to D-tryptophan, the yield is taken as 100%. While the yield was about 70% with the wild type, the yield was roughly 100% with a third generation mutant obtained in […]. Thus, the competitive inhibition was confirmed to be impaired in the third generation mutants.

[3] = Conversion of 5% or 10% N-acetyl-DL-tryptophan by E. coli transformant cells; assay type: cell-based, E. coli HB101; conditions: 25° C.
Protocol: Cells of E. coli HB101 strain were transformed with the expression plasmids for the three mutant D-aminoacylases AD-0103, AD-1064, and AD-1927 obtained in Example 8, whose inhibition was impaired. The E. coli cells were inoculated in liquid LB media, and cultured at 30° C. overnight. Then, the transformants were inoculated in 2x YT (2% Bacto tryptone, 1% Bacto-yeast extract, 1.0% sodium chloride, pH 7.2) media and incubated at 30° C. for 18 hours. The E. coli cells were harvested. The bacterial cells were used to hydrolyze N-acetyl-D-tryptophan.
Cells of the respective E. coli transformants prepared from 5 ml of liquid culture media were incubated in 10 ml of reaction solutions which comprised 300 mM Tris-hydrochloride buffer (pH 8.0) containing 5% or 10% N-acetyl-DL-tryptophan at 25° C. while being stirred. An E. coli HB101 strain containing the plasmid pSL-ADD6 with the wild-type D-aminoacylase was used as a control. In assays using 5% N-acetyl-DL-tryptophan as the substrate, the yield was about 50% with the wild type, whereas the yield was about 100% with any one of the four mutants. In assays using 10% N-acetyl-DL-tryptophan as the substrate, the yield was about 15% with the wild type, whereas the yield was about 25% with each of the mutants AD-0103 and AD-1089; the yield was about 40% with the mutant AD-1064, and the yield was about 60% with the mutant AD-1927. […]

[4] = according to references; cited from earlier work
[5] = Second generation mutants: activity of producing D-tryptophan (TNBS Abs. 420 / OD600); assay type: cell-based, E. coli JM109; conditions: 5% N-acetyl-DL-tryptophan and 2% N-acetyl-L-tryptophan
Protocol: Three types of the E. coli transformant libraries obtained in Example 11 were inoculated on an LB agar plate. Each colony grown on the plate was inoculated with a toothpick to a well of a microtiter plate which contained 150 μl of LB culture medium containing 50 μg/ml ampicillin and 0.02 mM IPTG, and then the microtiter plate was covered with Breathable Sealing Membrane (Nalgene). The microtiter plate was incubated at 37° C. for 18 hours while being shaken. 10 μl of the culture medium solution was added to the reaction solution containing 300 mM Tris-hydrochloride buffer (pH 8.0), 0.1% cetylpyridinium bromide, 5% N-acetyl-DL-tryptophan, 1% N-acetyl-L-tryptophan, and distilled water in the wells of a microtiter plate. The plate was incubated at 25° C. for 1 hour while being shaken. Then, D-tryptophan produced from N-acetyl-D-tryptophan was quantified by colorimetry according to the TNBS method. […]
as §1

B1: wild-type: D-aminoacylase derived from Alcaligenes denitrificans subsp. xylosoxydans MI-4, SEQ ID NO: 1 (protein)
chain: MSQSDSQPFDLLLAGGTLIDGSNTPGRRADLGVRGDRIAAIGDLSDAAAHTRVDVSGLVVAPGFIDSHTHDDNYLLRRRDMTPKISQGVTTVVTGNCGISLAPLAHANPPAPLDLLDEGGSYRFERFADYLDALRATPAAVNAACMVGHSTLRAAVMPDLQRAATDEEIAAMRDLAEEAMASGAIGISTGAFYPPAARATTEEIIEVCRPLSAHGGIYATHMRDEGEHIVAALEETFRIGRELDVPVVISHHKVMGQPNFGRSRETLPLIEAAMARQDVSLDAYPYVAGSTMLKQDRVLLAGRTIITWCKPFPELSGRDLDEVAAERGKSKYDVVPELQPAGAIYFMMDEPDVQRILAFGPTMIGSDGLPHDERPHPRLWGTFPRVLGHYARDLGLFPLETAVWKMTGLTAARFGLAGRGQLQAGYFADLVVFDPATVADTATFEHPTERAAGIHSVYVNGAPVWQEQAFTGQHAGRVLARTAA
modifications: Alcaligenes denitrificans subsp. xylosoxydans MI-4
For B1, the “Activity of producing D-tryptophan” value [1] was 2.65, the yield [2] was “about 70%” and the yield ([3]; 5% N-acetyl-DL-tryptophan) was “about 50%”. The yield ([3]; 10% N-acetyl-DL-tryptophan) was “about 15%”, the “activity to N-acetyl-D-tryptophan” value [4] was ≤ 20 U/mg and the “Activity of producing D-tryptophan” value [5] was 2.58.
